This is an account of results in patent publication US20070298041A1 (published 2007).

Test [1] has as its target T1, human TNFR1 (biotinylated, immobilized on SPR chip) (human (Homo sapiens), UniProt P19438 30-211, biotinylated (site not stated)).
T1 construct: also called hTNFR1
T1 sequence: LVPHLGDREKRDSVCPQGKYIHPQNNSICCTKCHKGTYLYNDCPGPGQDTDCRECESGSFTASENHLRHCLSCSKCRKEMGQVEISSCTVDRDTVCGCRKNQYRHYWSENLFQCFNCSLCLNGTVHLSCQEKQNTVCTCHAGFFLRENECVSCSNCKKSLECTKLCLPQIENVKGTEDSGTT
Put plainly: SPR (BIACORE 3000), biotinylated human TNFR1 on streptavidin chip, competition with chimeric TNFR1 proteins. The protocol:
(§1) If the dAb is pre-incubated and equilibrated with a chimeric molecule that comprises the domain(s) of TNFR1 that the particular dAb binds, then flow of this mixture over the TNFR1 surface will produce a smaller SPR signal relative to the dAb alone.
(§2) The choice of TNFR1 surface is determined by the species specificity of the anti-TNFR1 dAb to be tested. Therefore anti-human TNFR1 dAbs were evaluated using a surface coated with human TNFR1 and anti-mouse TNFR1 dAbs were evaluated using a chip coated with mouse TNFR1.
(§3) Biotinylated TNFR1 was diluted in the appropriate SPR buffer and run across a streptavidin (SA) sensor chip in a BIACORE 3000 SPR instrument (Biacore International AB, Uppsala, Sweden). A low flow-rate (5-10 μl/minute) was used in order to maximise the contact time between the biotinylated TNFR1 and the streptavidin surface. Flow continued until the streptavidin surface was saturated with biotinylated material, in order to generate a chip with maximal TNFR1 surface.
(In general: In SPR one partner is held on a chip, and binding of the other changes the refractive index at the surface.)

The target in test [2] is T2, mouse TNFR1 (biotinylated, immobilized on SPR chip) (mouse (Mus musculus), UniProt P25118 30-212, biotinylated (site not stated)).
T2 construct: also called murine TNFR1; mTNFR1
T2 sequence: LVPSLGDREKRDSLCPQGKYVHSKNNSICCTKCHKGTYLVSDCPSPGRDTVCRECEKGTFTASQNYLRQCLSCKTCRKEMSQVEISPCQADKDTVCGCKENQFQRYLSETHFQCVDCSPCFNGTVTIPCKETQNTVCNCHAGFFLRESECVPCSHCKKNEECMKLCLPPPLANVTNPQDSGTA
As to the kind of experiment: SPR (BIACORE 3000), biotinylated mouse TNFR1 on streptavidin chip, competition with chimeric TNFR1 proteins. The protocol:
as §1, §2, §3

B1: TAR2h-205 (other)
VH: EVQLLESGGGLVQPGGSLRLSCAASGFTFVKYSMGWVRQAPGKGLEWVSQISNTGGHTYYADSVKGRFTISRDNSKNTLYLQMNSLRAEDTAVYYCAKYTGRWEPFDYWGQGTLVTVSS
notes: Domain antibody (dAb), a single immunoglobulin VH variable domain; also called anti-human TNFR1 dAb
For the molecule B1, in test [1], the binding result is recorded as “binds”.

B2: TAR2m-21-23 (other)
VH: EVQLLESGGGLVQPGGSLRLSCAASGFTFNRYSMGWLRQAPGKGLEWVSRIDSYGRGTYYEDPVKGRFSISRDNSKNTLYLQMNSLRAEDTAVYYCAKISQFGSNAFDYWGQGTQVTVSS
notes: Domain antibody (dAb), a single immunoglobulin VH variable domain; also called anti-mouse TNFR1 dAb
Regarding B2, the binding result in test [2] is listed as “binds”.
